Experiment: yeast display, Sf9 membrane polyspecificity reagent, FACS + sequencing; frameworks hold sequencing errors
How it was run: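 Galactose induction of a Saccharomyces cerevisiae BJ5465 synthetic nanobody display library ran 36–48 hours. The cells were then stained for 1 hour at 4 °C with 10% biotinylated, detergent-solubilized Sf9 membrane reagent, pulled down on streptavidin microbeads and FACS-sorted into low and high (top ~1%) gates on expression and reagent-binding fluorescence. Labels for polyreactivity follow the gate of origin.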

| Sequence | polyreactivity (PSR sort gate) |
| --- | --- |
| QVQLVESGGGLVQAGGSLRLSCCASGFTVSSYARAWYRQAPGKERELVAAITYRGGSTYYADSVKGRFTISRDNAKNTVFLLMNSLKPEDTAVYYCAARWGYRMYWGQGTQVTVSS | high polyreactivity |
| QVQLVESGGGLVQAGGSLRLSCDASGFIFGYYAMGWYRHAPGKERELVAAISRGDTSTYYADSVKGRFTISRDNAKNTVYLQMYSLKPEDTAVYYCAADWTGYGYYYWGQGTQVTVSS | low polyreactivity |
| QVQLVESGGGLVQAGGSLRLSCDASGFIFPYYAMGWYRQAPGKERELVARITRGGRTYYADSVKGRFTISRDNAKNTVYLQMNSLKPEDTAVYYCATTGSSYFHSFEYDYWGQGTQVTVSS | low polyreactivity |
| QVQLVESGGGLVQAGGSLRLSCDASGFIFTGNVMGWYRQAPGKERELVAGITYTSGSTYYADSVKGRFTISRDYAKNTVYLQMNSLKPEDTAVYYCAAEITRHYVFGDDYWGQGTQVTVSS | low polyreactivity |
| QVQLVESGGGLVQAGGSLRLSCDASGFTFRAYPIGWYREAPGKERELVAAITYSGGRTYYADSVKGRFTISRDNAKNTVYLQMNSLKPEDTAVYYCANYDYWGQGTQVTVSS | high polyreactivity |
| QVQLVESGGGLVQAGGSLRLSCDASGFTFYRYAMGWYRQAPGKERELVAAISSSGSSTYYADSVKGRFTISRDNAKNTVYLQMNSLKPEDTAVYYCAKRLGGSRPYYYWGQGTQVTVSS | high polyreactivity |
| QVQLVESGGGLVQAGGSLRLSCDASGIIFPRYAMGGYRQAPGKERELVAAITIGGRTNYADSVKGRFTISRDNAKNTVYLQMTSLKPEDTAVYYCAAQTYVPYYEYDYWGQGTQVTVSS | low polyreactivity |
| QVQLVESGGGLVQAGGSLRLSCDASGIIFQYYAMGWYRHAPGKERELVAAISWSGGSTYYADSVKGRFTISRDNAKNTVYLQMNSLKPEDTAVYFCAARSRSFWPYEGDYWGQGTQVTLSS | low polyreactivity |
| QVQLVESGGGLVQAGGSLRLSCDASGITFDDYSRGWYRQAPGKERELVAAISGSGGSTYYADSVKGRFTISRDNAKNTVFLQMHSLKPEDTAVYYCAASGPEGQYLWYDYWGKGTQVTVSS | high polyreactivity |
| QVQLVESGGGLVQAGGSLRLSCDASGITFGYYAMGWYRQAPGKERELVAAISNSGRTYYADSVKGRFTISRDNAKNSVYLQMNSLKPEDTAVYYCAADDAYYDFYFWGQGTQVTVSS | low polyreactivity |
| QVQLVESGGGLVQAGGSLRLSCDASGITSHWYVMGWYRQAPGKERELVAAINSSGGRTSYADSVKGRFTISRDNAKNTVYLQMNSLKPEYTAVYYCAAGYTHSYFLGATGKVDYWGQGTQVTVSS | low polyreactivity |
| QVQLVESGGGLVQAGGSLRLSCDASGLIFYSNAMGWYRQAPGKERELVAAISSSGGSTYYADCVKGRFTISRDNAKNTVYLQMNSLKPEDTAVYFCAAAGDDYWGQGTQVTVSS | low polyreactivity |
| QVQLVESGGGLVQAGGSLRLSCDASGLTFRLYTMGWYRQAPGKETELGAAITYSGDSTYYADSVKGRFTISRDNAKNTDYLQMNSLKPEDTAVYYCAARKYYARYYWGQGTQVTVSW | high polyreactivity |
| QVQLVESGGGLVQAGGSLRLSCDASGLTFSWYAMGWSRQAPGKERELVAAISRSGGSTYYADSVKGRFSISRDKAKNTVYLQMNSLKPEDTGVYYCAAETDIAPDYDYWGQGTQVTVSS | low polyreactivity |
| QVQLVESGGGLVQAGGSLRLSCDASGNTYLNALGWYRQAPGKERELVAAISKGGADTYYADSVKGRFTISRDNAKNTVYLQMNSLKPEDTAVYYCAADGYADGWWVEYPWTYDYWGQGTQVTVSS | low polyreactivity |
| QVQLVESGGGLVQAGGSLRLSCDASGRIFGYYTMGWYRQAPGKERELVAAISNSGVSTYYADSVKGRFTISRDNAKNTVYLQMNSLKPEDTAVYYCNARLYSYYKFNYWGQGTQVTVSS | high polyreactivity |
| QVQLVESGGGLVQAGGSLRLSCDASGRIFYFYAMGWYRQAPGKESELVAAISTSGGSTYYADSVKGRFTISRDNAKNTVYLQMNSLKPEDTAVYYCAARYRYYGSEYDYWGQGTQVTVSS | low polyreactivity |
| QVQLVESGGGLVQAGGSLRLSCDASGRIFYRYVMGWYRQAPGKERELVAAIRNSGGSTYYADSVKGRFTISRDNAKNTVYLQMNSMKPEDTAVYYCAKRYGTSFYVGSAKIGYDYWGQGTQVTLSS | high polyreactivity |
| QVQLVESGGGLVQAGGSLRLSCDASGRILHYYAMGWYRQAPGKERELVATISISGGNTRYADSVKGRFTISRDNAKNTVYLQMNSLKPEDTAVYYCDARPYAGFDNWGQGTQVTVSS | high polyreactivity |
| QVQLVESGGGLVQAGGSLRLSCDASGRTFNYNAMGWYRQAPGKERELVAAISGNGGNTYYADSVKWRFTISRDNAKNTVYLQMNSLKPEDTAGYYCNAVYRYYREWKYDYWGQGTQVTVSS | high polyreactivity |
| QVQLVESGGGLVQAGGSLRLSCDASGRTFYANDMGWYRQAPGKERELVAAISSSVTSTHYADSVKGRFTISRDNAKNTVYLQMNSLKPEDTAVYYCNKDPIREVQPPGPSEMDYWGQGTQVTVSS | low polyreactivity |
| QVQLVESGGGLVQAGGSLRLSCDASGRTSRWNAMGCYRQAPGKERELVAAISSGSSTTYADSVKGRFTISRDNAKNTVYLQMNSLKPEATAVYYCNAKSGSRFVYRRYYTYNSWGQGTQVTVSS | high polyreactivity |

| Sequence | polyreactivity (PSR sort gate) |
| --- | --- |
| QVQLVESGGGLVQAGGSLRLSCDASGSIFDGYGMGWYRQAPGKERELVASITWNDGSTYYAASVKGRFTISRDNATNTVYLQMNSLKPEDTAVYYCAADQWGYEYDYWGQGTQVTVSS | low polyreactivity |
| QVQLVESGGGLVQAGGSLRLSCDASGSIFDYNTMGWYRQAPGKERELIAVISGTGGSTYYGDSVKGRFTISRDNAKNTVYLEMNSLKPEDTAVYYCAAAWYYSSRAFHATWGHDYWGQGTQVTVSS | low polyreactivity |
| QVQLVESGGGLVQAGGSLRLSCDASGSIFGGYAMGWYRQAHGKARELVAGISSGGSTYYADSVKGRFTISRDNAKNTVYLQMNSLKPEDTAVYYCATSTYAYRRNSYYYTRPRFGYCGQGTQVTVSS | high polyreactivity |
| QVQLVESGGGLVQAGGSLRLSCDASGSIFRYYGMGWYRQAPGKERELVAAISARGGSTRYADSVKGRFTISRDNAKNTVYLQMNSLKPEDTAVYYCAAGYPYDYDYWGQGTQVTVSS | high polyreactivity |
| QVQLVESGGGLVQAGGSLRLSCDASGSIFYNNAMGWYRQAPGKERELVATIRRSGGSTYYADSVKGRFTISRDNAKNTVYLQMNSLKPEDTAVYYCAADYTPDLLSKVDYWGQGTQVTVSS | low polyreactivity |
| QVQLVESGGGLVQAGGSLRLSCDASGSTFAYNVMGWYRQAPGKERELVAAISRSGGSTYYADSVKGRFTISRDNAKNTVYLQMNSLKPEDTAVYYCAKLFRPRLQDGYWGQGSQVTVSS | high polyreactivity |
| QVQLVESGGGLVQAGGSLRLSCDASGSTFDTYAMGCYTQAPGKERELVAAITEDGASTYYADSVKGRFTISRDNAKYTVYLQMNSLKPEDTAVYYCAAEPTYWPVWYVLYDYLGQGTQVTVSS | low polyreactivity |
| QVQLVESGGGLVQAGGSLRLSCDASGSTFGANAMGWYRQAPGKEREFVAAISRSGVRTYYADSVKGRFTISRDNAKNTVYLQMNSLKPEDTAVYYCAADGYWWTYTRYDYWGQGTQVTVSS | low polyreactivity |
| QVQLVESGGGLVQAGGSLRLSCDASGSTFPSYTMGWSRQAPGKERELVAVIRLSSGSTYYADSVKGRFTISRDNAKNTVYLQMNSLKPEDTAVYYCNTGRYHYFPNYWYDYWGQGTQVTVSS | low polyreactivity |
| QVQLVESGGGLVQAGGSLRLSCDASGSTFYVYAMGWYRQAPGKERELVASINSSTSTNYADSVKGRFTISRDNAKNTVYLQMNSLKPEDTAVYYCAADSRVPEYRSPKNDYWGQGTQVTVSS | low polyreactivity |
| QVQLVESGGGLVQAGGSLRLSCDASGSTLSENVMGWYRQAPGKERELVATISYSGDSTYYADSVKGRFTISRDNAKNTVYLQMNSLKPEDTAVYYCAAGVGWDFAYWGQGTQVTVSS | low polyreactivity |
| QVQLVESGGGLVQAGGSLRLSCDAYGSIFRLYAMGWFRQAPGKEREFVAAIDKRGGRTHYADSVKGRFTISRDNAKNTVYLQITSLKPEDTAVYYCAAKAYVVTNGHGKLDYWGQGPQVTVSS | high polyreactivity |
| QVQLVESGGGLVQAGGSLRLSCDDSGRIFGGYGMGWYTQAPGKEGELVAAISARGGSTYYADSVKGRFTISRDNAKNTVYLQMNSLKPEDTEFYYCAAVEASSRGYYDYDYWGQGTQVTVSS | low polyreactivity |
| QVQLVESGGGLVQAGGSLRLSCGASGFISTYYAMGWYRQAPGKERELVAAISWNGGSTYYADSVKGRFTISRDNAKNTVYLQMNSLKPEDTAVYYCAAYLGKWRHFYSSDYDYWGQGTQVTVSS | low polyreactivity |
| QVQLVESGGGLVQAGGSLRLSCGASGRFFDDYAVGWYRQAPGKEREFVAAISRSGASTYYADSVKGRFTISRDNAKNTVYLQMNSLKPEDTAVYYCAARAGANYRMDYWGQGTQVTVSS | high polyreactivity |
| QVQLVESGGGLVQAGGSLRLSCGASGRIFRGYTMGWYRQAPGKERELVAAINRSGGNTYYADSVKGRFTISRDNAKNTVYLQLNSLKPEDTAVYYCAAGARGYGWRGDYWGQGTQVTVSS | low polyreactivity |
| QVQLVESGGGLVQAGGSLRLSCGASGRIFYSNAMGWYRQAPGTERELVAAITGSGGRTHYADSVKGRFTISRDNAKNTVYLQMNSLKPEDTAVYYCAKDGYFPEFDYWGQGTQVTVSS | high polyreactivity |
| QVQLVESGGGLVQAGGSLRLSCGASGSIFVNKAMGWYRPAPGKERELVAAISSRSSRTFYADSVKGRFTISRDHAKNTVYLKMNILKPEDTEVYSCAVKKRAPDGDYWGQGTQVTVSS | high polyreactivity |
| QVQLVESGGGLVQAGGSLRLSCGASGSTFVAYDMGWYRQGPGKERELVAAISWSDATTYYADSVKGRFTISRDNAKNTVYLLMNSLNPEDTAVYYCAATRDTNNMDYWGQGTQVTVSS | low polyreactivity |
| QVQLVESGGGLVQAGGSLRLSCGASGYIFGYYAMGWYRQAPRKERDLVAAISSSGGSTYYADSVKGRFTISRDHAKNTVYLQMNSLKPEDTAVYYCAAYRWGTHDRLDYWGQGTQVTVSS | high polyreactivity |
| QVQLVESGGGLVQAGGSLRLSCPAPGRIFDRNAMGRYRQAPGKERELVAAISGSGGRTYYADSVKGRFTISRDNAKNTVYLQMNSLKPEDTAVYYCAASRKYGYGDWGQGTQVTVSS | high polyreactivity |

From the nanobody polyreactivity screen of Harvey et al. (2022)
